Reference: publication PMC4300955

Target: 53BP1 (UniProt Q12888)
Assay: co-immunoprecipitation, Western blot
Conditions: reference: wild type MOF, 3-6 h after 10 Gy; sites T392

## MOF (hMOF) (from UniProt Q9H7Z6) MOF-T392A, 3-6 h after 10 Gy
  binding against the reference: stronger
